In assay [1] the target is T1, recombinant human CTLA4-Fc (human, UniProt P16410 36-162).
T1 construct: also called human CTLA4 fused with human FC fragment; CTLA4-Fc (Sino Biological, 11159-H03H)
T1 sequence (looked up): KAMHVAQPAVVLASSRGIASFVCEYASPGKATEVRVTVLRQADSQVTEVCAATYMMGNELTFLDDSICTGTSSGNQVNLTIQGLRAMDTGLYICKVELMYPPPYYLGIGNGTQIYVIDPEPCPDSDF
The experiment in a line: ELISA; EC50 divided by the EC50 of TY21580. As to the method: (§1) Plates were blocked with PBS supplemented with 3% non-fat milk at 37° C. for 1 hour. After washing, 100 μL of 3-fold serial dilutions of antibodies were added to each well. After incubation at 37° C. for 1 hour, plates were washed four times, and 100 μL HRP conjugated anti-human IgG (Fab specific) (1:6000 dilution) was added to each well. Plates were incubated at 37° C. for 1 hour, washed four times, and then 50 μL TMB substrate solution was added to each well, and the plate was incubated at room temperature. […] The EC₅₀ was evaluated by fitting the ELISA data using the asymmetrical sigmoidal (five-parameter logistic equation) model of GraphPad Prism 6 software.
On the technique in general: ELISA stands for enzyme-linked immunosorbent assay.

Assay [2] has as its target T1, recombinant human CTLA4-Fc. Description: ELISA; EC50 divided by the EC50 of TY21580. The procedure: as §1
This is another data set of the same source.

Assay [3] deals with T1, recombinant human CTLA4-Fc. The experiment in a line: ELISA, coated human CTLA4-Fc (as in Example 8). The procedure: as §1
The target of assay [4] is T1, recombinant human CTLA4-Fc. The experiment in a line: ELISA, coated human CTLA4-Fc (as in Example 8). As to the method: as §1
This is another data set of the same source.

Assay [5] addresses T1, recombinant human CTLA4-Fc. The experiment in a line: ELISA; EC50 divided by the EC50 of TY21580. As to the method:
as §1
This is another data set of the same source.

In assay [6] the target is T1, recombinant human CTLA4-Fc. Description: ELISA, coated human CTLA4-Fc. As to the method:
as §1
(§2) The purified activatable antibodies were treated with the proteases which recognize the cleavage sequences, and were then tested to determine whether removal of the masking peptide restored their activity.

The target in assay [7] is T1, recombinant human CTLA4-Fc. Description: ELISA, coated human CTLA4-Fc; EC50 divided by the EC50 of TY21580. As to the method:
as §1, §2

Assay [8] has as its target T1, recombinant human CTLA4-Fc. The experiment in a line: ELISA, coated human CTLA4-Fc (as in Example 8). As to the method: as §1
The source holds these as a separate data set.

Assay [9] has as its target T2, full-length mouse CTLA4 expressed on HEK293F cells (mouse, UniProt P09793 36-223).
T2 construct: whole, on cells
The experiment in a line: flow cytometry, transfected HEK293F cells [Cont.]. As to the method:
(§3) The affinities of the antibodies were also assessed against human and mouse CTLA4 transiently expressed on the surface of HEK293F cells (FIG. 2). Briefly, HEK293F cells were transfected with a plasmid expressing full-length human, monkey or mouse CTLA4 from a bicistronic IRES vector also encoding EGFP, and EGFP expression was used to identify the transfected cells. After 48 hours, the mammalian cell suspension (2×10⁵/well) was transferred to an Eppendorf tube, centrifuged, the supernatant was discarded, the cells were resuspended with 1 mL PBSA (to a density is 4×10⁶ cells/mL), and added to a 96 well plate. […] The cells were then washed once prior to analysis by flow cytometry (Beckman® CytoFlex).

In assay [10] the target is T2, full-length mouse CTLA4 expressed on …. Description: flow cytometry, transfected HEK293F cells, antibody concentration not printed [Cont.]. As to the method:
as §3
(In flow cytometry, cells or beads pass a laser one at a time.)

Assay [11] has as its target T3, full-length human CTLA4 expressed on cells (human, UniProt P16410 36-223).
T3 construct: whole, on cells; also called HEK293F/hCTLA-4 cells; HEK293F/hCTLA4 cells
T3 sequence (looked up): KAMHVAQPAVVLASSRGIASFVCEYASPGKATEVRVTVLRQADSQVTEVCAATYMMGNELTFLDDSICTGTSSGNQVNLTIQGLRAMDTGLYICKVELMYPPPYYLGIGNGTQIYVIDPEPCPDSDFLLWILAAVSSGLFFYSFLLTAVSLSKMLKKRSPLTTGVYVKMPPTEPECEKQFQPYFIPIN
The assay is described as above. The procedure:
as §3

The target in assay [12] is T3, full-length human CTLA4 expressed on …. The experiment in a line: flow cytometry blocking: HEK293F cells with human CTLA4, 100 nM antibody, then 100 nM CD86-Fc-Bio (blocked ligand); PBSA panel: Mean 10678, 12.2%. The procedure: (§4) Antibodies were also tested for their ability to block binding of CTLA4 to its cognate ligands CD80 and CD86 by flow cytometry. The plasmid encoding full-length human CTLA4 was transiently expressed in HEK293F cells. Cells were washed with staining buffer (PBSA buffer including 1.76 mM KH₂PO₄, 10.14 mM Na₂HPO₄.12H₂O, 2.68 mM KCl, 136.89 mM NaCl and 1% BSA), and resuspended in staining buffer containing 100 nM test antibodies. […] Cells were washed once, and analyzed by CytoFlex flow cytometry.

The target is the same in assay [13]. Description: flow cytometry blocking: HEK293F cells with human CTLA4, 100 nM antibody, then 100 nM CD80-Fc-Bio (blocked ligand); PBSA panel: Mean 157692, 26.3%. The procedure:
as §4

Assay [14] has as its target mouse CTLA4 fused with human FC fragment (mouse, UniProt P09793 36-162, limits assumed). Description: ELISA, captured Fab, CTLA4-Fc titrated.
The target of assay [15] is T1, recombinant human CTLA4-Fc. Description: BLI Octet, CTLA4-Fc on AHC sensor, Fab 10 ug/mL. As to the method: Proprietary phagemid libraries (see PCT application number PCT/CN2017/098333, incorporated herein by reference in its entirety; see also PCT application number PCT/CN2017/098299, incorporated herein by reference in its entirety) were employed to pan against human CTLA4 antigens. A total of 3-5 rounds of panning were conducted. After the final round of panning, single-colony supernatant ELISA was performed to identify the primary hits that specifically recognized human CTLA4 (see e.g., UniProt Accession Number P16410). The primary hits were defined as those whose ELISA signals were at least twice that of background. The hits were then sequenced, and the unique clones were expressed in E. coli and purified. Their affinities against human CTLA4 were measured by ForteBio Octet RED96 Systems. […] The acquired ForteBio data were processed with Data Acquisition software 7.1, and kinetic data were fitted to a 1:1 Langmuir binding model.
On the technique in general: In BLI a coated tip is dipped into the sample, and binding shifts an interference pattern.

B1: TY22402 (antibody, IgG1, V domains shown)
VH: EVQLVESGGGLVQPGGSLRLSCAASGYSISSGYHWSWIRQAPGKGLEWLARIDWDDDKYYSTSLKSRLTISRDNSKNTLYLQLNSLRAEDTAVYYCARSYVYFDYWGQGTLVTVSS
VL: EVGSYIVHHSDCDAFYPYCDSSGRSAGGGGSPLGLAGSGGSDIQLTQSPSSLSASVGDRVTITCRASQSVRGRFLAWYQQKPGKAPKLLIYDASNRATGIPSRFSGSGSGTDFTLTISSLQPEDFATYYCQQSSSWPPTFGQGTKVEIKR
notes: IgG1; peptide fused to the N-terminus of the light chain of TY21580
For orientation: EC50 means the concentration at which the effect is half-maximal. In the case of B1, the masking efficiency in assay [1] came to 243; in [2], 554. For the same molecule, the EC50 in [3] amounted to 116 nM; in assay [4], 54 nM.

B2: TY22404 (antibody, IgG1, V domains shown)
VH: B1 VH
VL: EVGSYPNPSSDCVPYYYACAYSGRSAGGGGSPLGLAGSGGSDIQLTQSPSSLSASVGDRVTITCRASQSVRGRFLAWYQQKPGKAPKLLIYDASNRATGIPSRFSGSGSGTDFTLTISSLQPEDFATYYCQQSSSWPPTFGQGTKVEIKR
notes: as for B1
In the case of B2, the masking efficiency in assay [5] came to 469; in [1], 308; in assay [7] it was 216; in [2] it was 572. Also, the EC50 in [6] was 96.8 nM; in assay [3], 122 nM; in assay [4] it was 68.4 nM; in assay [8] it was 117 nM. In [6], the LogEC50 is -7.01.

B3: TY21589 (antibody, V domains shown)
VH: EVQLVESGGGLVQPGGSLRLSCAASGFTFSDYWIHWVRQAPGKGLEWIGWISPSGGGTKYAQKFQGRVTISRDNSKNTLYLQLNSLRAEDTAVYYCARGAYEFDYWGQGTLVTVSS
VL: DIQLTQSPSSLSASVGDRVTITCRASQSVSSRFLAWYQQKPGKAPKLLIYDASNRATGIPSRFSGSGSGTDFTLTISSLQPEDFATYYCQQSYPTPLTFGQGTKVEIK
notes: human IgG1 (hIgG1) from Fab hit B15740
Consider B3, for which the binding result in assay [9] is “no binding (tested: not printed on the sheet)”. For the same molecule, in assay [10], the “% of cells in upper right quadrant (Q2)” value came out at 1.36%. Besides, the “% of cells in upper right quadrant (Q2)” value in assay [11] stood at 29.7%. For the same molecule, in assay [12], the “% of cells in upper right quadrant (CD86-positive) in the presence of the antibody” value came out at 0.55% and the “Mean of the CD86 binding signal in the presence of the antibody” value worked out at 6660. For the same molecule, in [13], the “% of cells in upper right quadrant (CD80-positive) in the presence of the antibody” value came out at 27.5% and the “Mean of the CD80 binding signal in the presence of the antibody” value turned out to be 110000.

B4: B15740 (Fab, V domains shown)
VH: B3 VH
VL: DIQLTQSPSSLSASVGDRVTITCRASQSVSSRFLAWYQQKPGKAPKLLIYDASNRATGIPSRFSGSGSGTDFTLTISSLQPEDFATYYCQQSYPTPLTFGQGTKVEIKR
notes: Fab from E. coli; also called Fab hit of TY21589
For orientation: Kd means a measure of binding affinity in units of concentration. In general, koff refers to the rate constant with which the complex falls apart. For orientation: kon means the second-order rate constant of association. For the molecule B4, the binding result in assay [14] is recorded as “no binding”. Also, in assay [15], the Kd stood at 14.5 nM, the koff stood at 0.00258 s⁻¹ and the kon stood at 178000 M⁻¹ s⁻¹.

The record behind these values is patent US20190241662A1 (ADAGENE, published 2019).
